Experimental data taken from the supplement of paper PMC9112550, “Optimization of the antimicrobial peptide Bac7 by deep mutational scanning” (BMC Biology, 2022).

test system: Escherichia coli TOP10; assay: shrunken log2 fold change of peptide-encoding DNA abundance (4.5 h post-induction vs induction); higher = less antimicrobial activity (less host growth inhibition); details: time post-induction: 4.5 h; library: site-saturation at positions 5, 18, 19, 20
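Also: peptides expressed intracellularly from a pBAD plasmid library in pooled LB shake-flask culture, induced with 0.3% L-arabinose, DNA abundance read by NGS, three biological replicates, DESeq2 with apeglm shrinkage.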

Compared with RRIRLRPPRLPRPRPRPFYQPRP, RRIRLRPPRLPRPRPRPEASPRP is higher in “shrunken log2 fold change” value: -0.161 for the first, 0.133 for the second.

RRIRTRPPRLPRPRPRPIMVPRP and RRIRVRPPRLPRPRPRPKWFPRP are within 0.2 log units of each other in “shrunken log2 fold change” value: -0.198 for the first, -0.0567 for the second.

Compared with RRIRERPPRLPRPRPRPSCQPRP, RRIRYRPPRLPRPRPRPQYLPRP is lower in “shrunken log2 fold change” value: -0.47 for the first, -3.15 for the second.

RRIRVRPPRLPRPRPRPTAHPRP and RRIRFRPPRLPRPRPRPLSWPRP are within 0.2 log units of each other in “shrunken log2 fold change” value: 0.246 for the first, 0.245 for the second.

Compared with RRIRYRPPRLPRPRPRPHFGPRP, RRIRARPPRLPRPRPRPDLAPRP is higher in “shrunken log2 fold change” value: 0.0439 for the first, 1.07 for the second.

First: RRIRFRPPRLPRPRPRPNAEPRP
Second: RRIRDRPPRLPRPRPRPMISPRP
The “shrunken log2 fold change” value of the first is higher: 0.67 for the first, 0.185 for the second.

Going from RRIRMRPPRLPRPRPRPCEFPRP to RRIRCRPPRLPRPRPRPSIVPRP, the “shrunken log2 fold change” value falls from 0.00328 to -0.965.

Compared with RRIRKRPPRLPRPRPRPEHKPRP, RRIRERPPRLPRPRPRPLFAPRP is lower in “shrunken log2 fold change” value: 0.295 for the first, -0.0197 for the second.

Compared with RRIRYRPPRLPRPRPRPPDVPRP, RRIRDRPPRLPRPRPRPQQRPRP is higher in “shrunken log2 fold change” value: -0.0764 for the first, 0.147 for the second.

RRIRDRPPRLPRPRPRPESVPRP and RRIRHRPPRLPRPRPRPNGPPRP are within 0.2 log units of each other in “shrunken log2 fold change” value: 0.0047 for the first, -0.0992 for the second.

Compared with RRIRLRPPRLPRPRPRPPAQPRP, RRIRIRPPRLPRPRPRPCVMPRP is lower in “shrunken log2 fold change” value: 0.888 for the first, -0.106 for the second.

Compared with RRIRNRPPRLPRPRPRPWQPPRP, RRIRKRPPRLPRPRPRPMYNPRP is lower in “shrunken log2 fold change” value: 0.104 for the first, -0.315 for the second.

First: RRIRWRPPRLPRPRPRPQGPPRP
Second: RRIRCRPPRLPRPRPRPSMHPRP
The “shrunken log2 fold change” value of the first is higher: 1.32 for the first, -0.346 for the second.

First: RRIRPRPPRLPRPRPRPFCHPRP
Second: RRIRKRPPRLPRPRPRPDPDPRP
The “shrunken log2 fold change” value of the first is lower: -0.00162 for the first, 0.431 for the second.

First: RRIRFRPPRLPRPRPRPLPGPRP
Second: RRIRCRPPRLPRPRPRPAYGPRP
The “shrunken log2 fold change” value of the first is higher: 0.403 for the first, 0.13 for the second.

RRIRDRPPRLPRPRPRPMYCPRP and RRIRPRPPRLPRPRPRPEMFPRP are within 0.2 log units of each other in “shrunken log2 fold change” value: -0.00227 for the first, -0.112 for the second.

RRIRTRPPRLPRPRPRPLKTPRP and RRIRKRPPRLPRPRPRPLWTPRP are within 0.2 log units of each other in “shrunken log2 fold change” value: -0.0866 for the first, 0.0306 for the second.

RRIRSRPPRLPRPRPRPRWGPRP and RRIRKRPPRLPRPRPRPMRHPRP are within 0.2 log units of each other in “shrunken log2 fold change” value: 0.228 for the first, 0.0303 for the second.

First: RRIRLRPPRLPRPRPRPQINPRP
Second: RRIRERPPRLPRPRPRPKFCPRP
The “shrunken log2 fold change” value of the first is lower: -0.506 for the first, -0.267 for the second.

Compared with RRIRTRPPRLPRPRPRPTSGPRP, RRIRRRPPRLPRPRPRPHEMPRP is higher in “shrunken log2 fold change” value: 0.0562 for the first, 0.489 for the second.

RRIRDRPPRLPRPRPRPAGVPRP and RRIRLRPPRLPRPRPRPGSWPRP are within 0.2 log units of each other in “shrunken log2 fold change” value: 0.25 for the first, 0.18 for the second.

RRIRNRPPRLPRPRPRPDYHPRP and RRIRVRPPRLPRPRPRPDFLPRP are within 0.2 log units of each other in “shrunken log2 fold change” value: 0.00923 for the first, -0.189 for the second.

RRIRNRPPRLPRPRPRPQLAPRP and RRIRHRPPRLPRPRPRPHPDPRP are within 0.2 log units of each other in “shrunken log2 fold change” value: -0.123 for the first, -0.206 for the second.

First: RRIRPRPPRLPRPRPRPVYQPRP
Second: RRIRARPPRLPRPRPRPREDPRP
The “shrunken log2 fold change” value of the first is lower: -0.0913 for the first, 0.879 for the second.

RRIRGRPPRLPRPRPRPCGKPRP and RRIRGRPPRLPRPRPRPVTGPRP are within 0.2 log units of each other in “shrunken log2 fold change” value: 0.0957 for the first, 0.21 for the second.

RRIRERPPRLPRPRPRPIDYPRP and RRIRVRPPRLPRPRPRPAHIPRP are within 0.2 log units of each other in “shrunken log2 fold change” value: -0.0881 for the first, -0.0203 for the second.

Going from RRIRARPPRLPRPRPRPEMIPRP to RRIRFRPPRLPRPRPRPQRRPRP, the “shrunken log2 fold change” value falls from 0.0273 to -0.177.

Compared with RRIRPRPPRLPRPRPRPKLSPRP, RRIRPRPPRLPRPRPRPNMPPRP is lower in “shrunken log2 fold change” value: 0.331 for the first, -0.405 for the second.

RRIRCRPPRLPRPRPRPAAMPRP and RRIRARPPRLPRPRPRPSCRPRP are within 0.2 log units of each other in “shrunken log2 fold change” value: 0.281 for the first, 0.248 for the second.

Going from RRIRSRPPRLPRPRPRPKVMPRP to RRIRNRPPRLPRPRPRPYQPPRP, the “shrunken log2 fold change” value falls from 0.0101 to -0.31.

RRIRHRPPRLPRPRPRPTGNPRP and RRIRDRPPRLPRPRPRPYDNPRP are within 0.2 log units of each other in “shrunken log2 fold change” value: -0.215 for the first, -0.307 for the second.

Compared with RRIRLRPPRLPRPRPRPLYQPRP, RRIRGRPPRLPRPRPRPRPRPRP is higher in “shrunken log2 fold change” value: -0.833 for the first, 1.31 for the second.

Going from RRIRMRPPRLPRPRPRPEMHPRP to RRIRSRPPRLPRPRPRPSQKPRP, the “shrunken log2 fold change” value falls from 0.346 to -0.158.

RRIRRRPPRLPRPRPRPCVFPRP and RRIRRRPPRLPRPRPRPWVLPRP are within 0.2 log units of each other in “shrunken log2 fold change” value: 0.022 for the first, 0.0819 for the second.

Going from RRIRPRPPRLPRPRPRPTHYPRP to RRIRKRPPRLPRPRPRPQESPRP, the “shrunken log2 fold change” value falls from 0.206 to -0.00973.

Going from RRIRPRPPRLPRPRPRPNCTPRP to RRIRWRPPRLPRPRPRPEQSPRP, the “shrunken log2 fold change” value rises from -0.0727 to 0.678.

Compared with RRIRGRPPRLPRPRPRPYNCPRP, RRIRERPPRLPRPRPRPSKLPRP is lower in “shrunken log2 fold change” value: -0.0269 for the first, -1.06 for the second.

With RRIRERPPRLPRPRPRPVYQPRP the “shrunken log2 fold change” value was -0.0713.
